Measurements: article PMC2133148 (The Journal of Cell Biology, 1999)
No end group written: not given here.

What was measured:
Assay in all cases: two-hybrid
[1] = molecular target: T1, PS2-loop D (LexA fusion bait) (human, UniProt P49810 301-319, also: LexA fusion bait)
T1 chain (looked up): TVGMAKLDPSSQGALQLPY

[2] = molecular target: PS1-loop C (LexA fusion bait) (human, UniProt P49768 264-294)
[3] = molecular target: PS2-loop B (LexA fusion bait) (human, UniProt P49810 270-319)
[4] = molecular target: PS1-loop C T291A (LexA fusion bait) (human, UniProt P49768 264-294, T291A)
[5] = molecular target: PS1-loop C (T281P, L282I) (LexA fusion bait) (human, UniProt P49768 264-294, T281P | L282I)
[6] = molecular target: PS2-loop C (LexA fusion bait) (human, UniProt P49810 270-300)
[7] = molecular target: PS1-loop C T281P (LexA fusion bait) (human, UniProt P49768 264-294, T281P)
[8] = molecular target: PS1-loop C (T281P, T291A) (LexA fusion bait) (human, UniProt P49768 264-294, T281P | T291A)

B1: calmyrin (clone 7, full-length cDNA in pJG4-5) (natural protein, human, UniProt Q99828 1-191, looked up)
chain: MGGSGSRLSKELLAEYQDLTFLTKQEILLAHRRFCELLPQEQRSVESSLRAQVPFEQILSLPELKANPFKERICRVFSTSPAKDSLSFEDFLDLLSVFSDTATPDIKSHYAFRIFDFDDDGTLNREDLSRLVNCLTGEGEDTRLSASEMKQLIDNILEESDIDRDGTINLSEFQHVISRSPDFASSFKIVL
[1]
  fold increase in β-galactosidase activity over the lamin B control: 2.2 fold
[2]
  fold increase in β-galactosidase activity over the lamin B control: 5.8 fold
[3]
  fold increase in β-galactosidase activity over the lamin B control: 8.5 fold
[4]
  interaction relative to PS2-loop C: ~0.33 fold of the PS2 level
[5]
  interaction relative to PS1-loop C T281P: 1.7 fold of T281P alone
[6]
  fold increase in β-galactosidase activity over the lamin B control: 74 fold
[7]
  interaction relative to PS2-loop C: ~0.5 fold of the PS2 level
[8]
  interaction relative to PS2-loop C: ~2 fold of the wild-type PS2-loop bait
